No end group written: not given here.
Columns and labels:
[1] = target: T1, BSA-conjugated human SEMG2 (497-509) polypeptide (human, also: coupled to BSA, site not given here); experiment: ELISA, OD450 against antibody concentration (FIG. 21)
T1 peptide: QIEKLVEGKSQIQ

[2] = target: T2, human SEMG2 full-length protein (human, UniProt Q02383 24-582, limits assumed); experiment: biolayer interferometry (ForteBio Blitz or Gator)
T2 construct: also called SEMG2 protein; semenogelin 2
T2 sequence: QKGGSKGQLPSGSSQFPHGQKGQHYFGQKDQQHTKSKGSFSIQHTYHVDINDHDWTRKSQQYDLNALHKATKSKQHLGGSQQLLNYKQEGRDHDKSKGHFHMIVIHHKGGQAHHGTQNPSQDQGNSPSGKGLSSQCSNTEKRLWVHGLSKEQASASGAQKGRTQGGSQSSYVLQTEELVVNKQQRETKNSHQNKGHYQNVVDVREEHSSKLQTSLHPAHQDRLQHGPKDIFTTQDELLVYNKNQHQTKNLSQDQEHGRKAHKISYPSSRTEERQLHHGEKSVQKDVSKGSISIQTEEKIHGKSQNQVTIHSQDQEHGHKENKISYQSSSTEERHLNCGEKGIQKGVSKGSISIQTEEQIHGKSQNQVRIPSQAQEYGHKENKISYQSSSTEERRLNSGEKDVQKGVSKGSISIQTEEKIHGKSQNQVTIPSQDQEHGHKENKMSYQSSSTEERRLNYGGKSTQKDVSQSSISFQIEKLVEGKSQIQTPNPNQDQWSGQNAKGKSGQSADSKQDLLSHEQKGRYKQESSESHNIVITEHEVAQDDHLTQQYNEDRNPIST
Method in brief: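 KD of antibodies binding human SEMG2 measured by biolayer interferometry, with antibody and SEMG2 in SD buffer. KD derived by binding-curve analysis.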

[3] = target: T3, SEMG2(497-509) polypeptide QIEKLVEGKSQIQ (human); experiment: phage display screening on BSA- and KLH-coupled peptide, ELISA
T3 peptide: QIEKLVEGKSQIQ
From the text: Specifically, the preparation of polypeptide antigens and the screening of human natural antibody library were firstly performed. […] ELISA was used to select clones that bind to antigenic epitopes for preliminary screening. Different unique sequences were obtained after sequencing single colonies, sorted according to affinity sorting, and full-length antibodies were constructed from antigen-binding fragments (Fab) with relatively high affinity. The binding ability and blocking function tests were performed after purification, that is, the effect of the antibody on binding between SEMG2 and CD27 was determined by the ELISA experiment.

[4] = target: T2, human SEMG2 full-length protein; experiment: ELISA on SEMG2; the EC50 table prints no unit, the axis is log (antibody concentration, nM)
[5] = target: T2, human SEMG2 full-length protein; experiment: ELISA, immobilized antigen SEMG2 (1-582)
From the text: (§1) To clearly distinguish the binding epitopes of blocking antibodies (i.e., antibodies that can inhibit the binding between SEMG2 and CD27) and non-blocking antibodies, a corresponding ELISA analysis method was established. […] Anti-mouse or anti-rabbit secondary antibodies were then used to detect the corresponding bound antibodies.

AIEKLVEGKSQIQ = target: T4, AIEKLVEGKSQIQ (not fully specified); experiment: ELISA, immobilized peptide AIEKLVEGKSQIQ
T4 construct: member of the group m41; the text speaks of glycine substitution, the sheet prints alanine
T4 peptide: AIEKLVEGKSQIQ
From the text: (§2) FIG. 20 depicts the value detected by ELISA, i.e., OD₄₅₀ absorbance. […] This experiment is used to determine the precise amino acid epitopes that different monoclonal antibodies bind to, and the relative importance of each amino acid to the binding antibody.

QAEKLVEGKSQIQ = target: T5, QAEKLVEGKSQIQ (not fully specified); experiment: ELISA, immobilized peptide QAEKLVEGKSQIQ
T5 construct: member of the group m41; the text speaks of glycine substitution, the sheet prints alanine
T5 peptide: QAEKLVEGKSQIQ
From the text: as §2

QIAKLVEGKSQIQ = target: T6, QIAKLVEGKSQIQ (not fully specified); experiment: ELISA, immobilized peptide QIAKLVEGKSQIQ
T6 construct: member of the group m41; the text speaks of glycine substitution, the sheet prints alanine
T6 peptide: QIAKLVEGKSQIQ

QIEALVEGKSQIQ = target: T7, QIEALVEGKSQIQ (not fully specified); experiment: ELISA, immobilized peptide QIEALVEGKSQIQ
T7 construct: member of the group m41; the text speaks of glycine substitution, the sheet prints alanine
T7 peptide: QIEALVEGKSQIQ
From the text: as §2

QIEKAVEGKSQIQ = target: T8, QIEKAVEGKSQIQ (not fully specified); experiment: ELISA, immobilized peptide QIEKAVEGKSQIQ
T8 construct: alanine at this position
T8 peptide: QIEKAVEGKSQIQ
From the text: as §2

QIEKLAEGKSQIQ = target: T9, QIEKLAEGKSQIQ (not fully specified); experiment: ELISA, immobilized peptide QIEKLAEGKSQIQ
T9 construct: member of the group m41; the text speaks of glycine substitution, the sheet prints alanine
T9 peptide: QIEKLAEGKSQIQ
From the text: as §2

QIEKLVAGKSQIQ = target: T10, QIEKLVAGKSQIQ (not fully specified); experiment: ELISA, immobilized peptide QIEKLVAGKSQIQ
T10 construct: member of the group m41; the text speaks of glycine substitution, the sheet prints alanine
T10 peptide: QIEKLVAGKSQIQ
From the text: as §2
To further precisely define the exact epitopes (specific to the level of single amino acid) to which blocking antibodies MM02, MM05, MM07, MM08, MM13, MM14 bind, corresponding ELISA analysis method was established. […] Anti-mouse or anti-rabbit secondary antibodies were then used to detect the corresponding bound antibodies.

QIEKLVEAKSQIQ = target: T11, QIEKLVEAKSQIQ; experiment: ELISA, immobilized peptide QIEKLVEAKSQIQ
T11 construct: member of the group m41; position 504 is glycine in SEMG2 and the sheet prints alanine there
T11 peptide: QIEKLVEAKSQIQ
From the text: as §2

QIEKLVEGASQIQ = target: T12, QIEKLVEGASQIQ (not fully specified); experiment: ELISA, immobilized peptide QIEKLVEGASQIQ
T12 construct: member of the group m41; the text speaks of glycine substitution, the sheet prints alanine
T12 peptide: QIEKLVEGASQIQ
From the text: as §2

QIEKLVEGKAQIQ = target: T13, QIEKLVEGKAQIQ (not fully specified); experiment: ELISA, immobilized peptide QIEKLVEGKAQIQ
T13 construct: alanine at this position
T13 peptide: QIEKLVEGKAQIQ
From the text: as §2

QIEKLVEGKSAIQ = target: T14, QIEKLVEGKSAIQ (not fully specified); experiment: ELISA, immobilized peptide QIEKLVEGKSAIQ
T14 construct: alanine at this position
T14 peptide: QIEKLVEGKSAIQ
From the text: as §2

QIEKLVEGKSQAQ = target: T15, QIEKLVEGKSQAQ (not fully specified); experiment: ELISA, immobilized peptide QIEKLVEGKSQAQ
T15 construct: member of the group m41; the text speaks of glycine substitution, the sheet prints alanine
T15 peptide: QIEKLVEGKSQAQ
From the text: as §2

QIEKLVEGKSQIA = target: T16, QIEKLVEGKSQIA (not fully specified); experiment: ELISA, immobilized peptide QIEKLVEGKSQIA
T16 construct: alanine at this position
T16 peptide: QIEKLVEGKSQIA
From the text: as §2

[6] = target: T3, SEMG2(497-509) polypeptide QIEKLVEGKSQIQ; experiment: ELISA, immobilized peptide QIEKLVEGKSQIQ
From the text: as §2

SEMG2(354-403) fragment = target: T17, SEMG2(354-403) fragment (human); experiment: ELISA, immobilized antigen SEMG2 (354-403)
T17 peptide: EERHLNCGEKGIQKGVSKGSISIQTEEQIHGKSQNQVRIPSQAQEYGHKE
From the text: as §1

SEMG2(442-453) fragment = target: T18, SEMG2(442-453) fragment (human); experiment: ELISA, immobilized antigen SEMG2 (442-453)
T18 peptide: IHGKSQNQVTIP
From the text: as §1

[7] = target: T3, SEMG2(497-509) polypeptide QIEKLVEGKSQIQ; experiment: ELISA, immobilized antigen SEMG2 (497-509)
From the text: as §1

SEMG2(563-574) fragment = target: T19, SEMG2(563-574) fragment (human); experiment: ELISA, immobilized antigen SEMG2 (563-574)
T19 peptide: VAQDDHLTQQYN
From the text: as §1

[8] = target: T1, BSA-conjugated human SEMG2 (497-509) …; experiment: ELISA on BSA-SEMG2 (497-509), antibody titrated
[9] = target: T2, human SEMG2 full-length protein; experiment: ELISA, plate coated with SEMG2 protein, anti-mouse secondary antibody; the EC50 table prints no unit, the axis is log (antibody concentration, nM)
[10] = target: T2, human SEMG2 full-length protein; experiment: ELISA (FIG. 21B-D)
[11] = target: T1, BSA-conjugated human SEMG2 (497-509) …; experiment: ELISA (FIG. 21B-D)
[12] = target: T2, human SEMG2 full-length protein; experiment: ELISA on SEMG2; the EC50 table prints no unit, the axis is log (antibody concentration, nM); remark: listed apart in the source
[13] = target: T1, BSA-conjugated human SEMG2 (497-509) …; experiment: ELISA on BSA-S2 (497-509); the EC50 table prints no unit, the axis is log (antibody concentration, nM)
[14] = target: T2, human SEMG2 full-length protein; experiment: ELISA on SEMG2 protein, run beside the humanized antibodies; the EC50 table prints no unit, the axis is log (antibody concentration, nM)

B1: H88-93 (antibody, V domains shown)
VH: QITLKESGPTLVKPTQTLTLTCNFSGFSLTTSGVGVAWIRQPPGKALEWLALIYWDDDQRYSPSLKSRLSVTKHTSKDQVVLTMTNVGPVDTATYYCAHLSYGPGWGYYMDVWGNGTMVTVSS
VL: EIVLTQSPGTLSLSPGERASLSCRASQSVRNNYLAWYQQKPGQAPRLLIFGASNRATGIPDTFSGSGSGTDFTLTISRLEPEDFAVYYCQQYGHSPITFGQGTRLEIK
notes: Fully human full-length antibody built from a phage Fab
- binding result [1]: binds
- Kd [2]: 4.6 nM
- binding result [3]: binds
- EC50 [4]: 0.0636 nM

B2: MM02 (antibody, IgG2b, V domains shown)
VH: QIQLVQSGPEVKKPGETVRISCKASGYTLTTAGIQWVQKMPGKGLKWIGWINTHSGVPEYAEDFKGRFAFFLETSASTAYLQISNLKNEDTATYFCARLGLLGYWGQGTTLTVSS
VL: DILLTQSPAILSVSPGERVSFSCRASQSIGTTIHWYQQRTNGSPRLLIKYASESISGIPSRFSGSGSGTDFTLSINSVESEDIADYYCQQSNSWPWTFGGGTKLEIKR
- Kd [2]: 1.33 nM
- A450 absorbance [5]: 1.2
- OD450 absorbance (AIEKLVEGKSQIQ): 0.45
- OD450 absorbance (QAEKLVEGKSQIQ): 0.541
- OD450 absorbance (QIAKLVEGKSQIQ): 0.788
- OD450 absorbance (QIEALVEGKSQIQ): 0.47
- OD450 absorbance (QIEKAVEGKSQIQ): 0.051
- OD450 absorbance (QIEKLAEGKSQIQ): 0.928
- OD450 absorbance (QIEKLVAGKSQIQ): 0.48
- OD450 absorbance (QIEKLVEAKSQIQ): 0.766
- OD450 absorbance (QIEKLVEGASQIQ): 0.949
- OD450 absorbance (QIEKLVEGKAQIQ): 0.173
- OD450 absorbance (QIEKLVEGKSAIQ): 1.26
- OD450 absorbance (QIEKLVEGKSQAQ): 0.894
- OD450 absorbance (QIEKLVEGKSQIA): 1.15
- OD450 absorbance [6]: 1.26
- A450 absorbance (SEMG2(354-403) fragment): 0.004
- binding result (SEMG2(354-403) fragment): no binding
- A450 absorbance (SEMG2(442-453) fragment): 0.001
- binding result (SEMG2(442-453) fragment): no binding
- A450 absorbance [7]: 1.18
- A450 absorbance (SEMG2(563-574) fragment): 0.005
- binding result (SEMG2(563-574) fragment): no binding
- EC50 (read off the curve) [8]: ~4 ng/mL
- EC50 [9]: 0.176 nM

B3: 96-10R-10 (antibody, V domains shown)
VH: QVQLLESGGGLVQPGGSLRLSCSASGFTFSSRAMHWVRQAPGKGLEYVSAISSNGGSTYYADSVKGRFTISRDNSKNTLYLQMSSLRAEDTAVYYCVIEGGSTGSTTSGAFDIWGQGTMVTVSS
VL: DIQMIQSPPSVSASVGDTVTIACRANQGIDSWLAWYQQKPGRAPKLLIYSASRLQSGVPSRFSGGGSGTDFALTISNLQPEDFATYYCQQALSLPITFGQGTRLEIK
- fold higher affinity than the parent antibody (H88-96) [10]: > 10 fold
- fold higher affinity than the parent antibody (H88-96) [11]: > 10 fold
- EC50 [12]: 0.241 nM
- EC50 [13]: 3.36 nM

B4: MM05 (antibody, IgG1, V domains shown)
VH: QVQLQQPGAELVRPGASVKLSCEASGYTFTSYWMNWVKQRPGQGLEWIGMIDPSDSETHYNQMFKDKATLTVDKSSSTAYMQLSSLTSEDSAVYYCARYLGGKEGSFDYWGQGTTLTVSS
VL: DIVMSQSPSSLAVSAGEKVTMSCKSSQSLLNSRTRKNYLAWYQQKPGQSPKLLIYWASTRESGVPDRFTGSGSGTDFTLTISSVQAEDLAVYYCKQSYSLPWTFGGGTKLEIKR
- Kd [2]: 5.28 nM
- A450 absorbance [5]: 1.17
- OD450 absorbance (AIEKLVEGKSQIQ): 0.638
- OD450 absorbance (QAEKLVEGKSQIQ): 0.796
- OD450 absorbance (QIAKLVEGKSQIQ): 0.728
- OD450 absorbance (QIEALVEGKSQIQ): 0.726
- OD450 absorbance (QIEKAVEGKSQIQ): 0.259
- OD450 absorbance (QIEKLAEGKSQIQ): 0.558
- OD450 absorbance (QIEKLVAGKSQIQ): 0.615
- OD450 absorbance (QIEKLVEAKSQIQ): 0.723
- OD450 absorbance (QIEKLVEGASQIQ): 0.852
- OD450 absorbance (QIEKLVEGKAQIQ): 0.168
- OD450 absorbance (QIEKLVEGKSAIQ): 1.26
- OD450 absorbance (QIEKLVEGKSQAQ): 0.868
- OD450 absorbance (QIEKLVEGKSQIA): 1.21
- OD450 absorbance [6]: 1.27
- A450 absorbance (SEMG2(354-403) fragment): 0.008
- binding result (SEMG2(354-403) fragment): no binding
- A450 absorbance (SEMG2(442-453) fragment): 0.009
- binding result (SEMG2(442-453) fragment): no binding
- A450 absorbance [7]: 1.17
- binding result (SEMG2(563-574) fragment): no binding
- EC50 (read off the curve) [8]: ~8 ng/mL
- EC50 [14]: 0.147 nM
- EC50 [9]: 0.535 nM
